Experimental data as given in patent publication US20240124917, “COMPOSITIONS AND METHODS FOR NUCLEIC ACID DETECTION BY LATERAL FLOW ASSAYS” (King Abdullah University of Science and Technology, published 2024).

B1: pstv-cnt-RB-ssDNA (ssDNA)
DNA: CAGATCAATTCTCTTAGGTTTACCCGCCAATATATCCTGTCAAACACTGATAGTTTTCACAGTAGGGTG

Key:
[1] = molecular target: T1, VirD2-Cas9 fusion (wild-type VirD2 to wild-type SpCas9) (/ Streptococcus pyogenes, UniProt P06668;Q99ZW2 P06668:1-424,Q99ZW2:1-1368); test: EMSA; denaturing gel mobility shift, Coomassie; 250 nM each, 10 mM MgCl2; conditions: tags: VirD2-SpCas9 fusion, expressed in E. coli BL21(DE3)
dCas9-VirD2 fusion [2] = molecular target: T2, dCas9-VirD2 fusion (Streptococcus pyogenes / Agrobacterium …, UniProt Q99ZW2 SEQ:46-1413+1453-1899); test: EMSA; denaturing gel mobility shift; 10 mM MgCl2
VirD2-dCas9 fusion [3] = molecular target: T3, VirD2-dCas9 fusion (/ Streptococcus pyogenes, UniProt Q99ZW2 SEQ:46-492+510-1877); test: EMSA; denaturing gel mobility shift; 10 mM MgCl2
[4] = molecular target: T4, Cas9-VirD2 fusion (wild-type SpCas9 to wild-type VirD2) (Streptococcus pyogenes / Agrobacterium …, UniProt Q99ZW2;P06668 Q99ZW2:1-1368,P06668:1-424); test: EMSA; different shift pattern; 250 nM each, 10 mM MgCl2; conditions: tags: SpCas9-VirD2 fusion, expressed in E. coli BL21(DE3)
[5] = molecular target: T5, dCas9-dVirD2 fusion (dead Cas9, dead VirD2) (Streptococcus pyogenes / Agrobacterium …, UniProt Q99ZW2 SEQ:46-1413+1453-1899); test: EMSA; dead VirD2 does not bind RB probe
[6] = molecular target: T5, dCas9-dVirD2 fusion (dead Cas9, dead …); test: negative control, dead VirD2; anti-biotin western; conditions: label: 3' biotin
[7] = molecular target: T1, VirD2-Cas9 fusion (wild-type VirD2 to …); test: covalent binding, anti-biotin western; 10 mM MgCl2, 37 C; conditions: tags: VirD2-SpCas9 fusion, expressed in E. coli BL21(DE3); label: 3' biotin
dCas9-VirD2 fusion [8] = molecular target: T2, dCas9-VirD2 fusion; test: as above; conditions: label: 3' biotin
VirD2-dCas9 fusion [9] = molecular target: T3, VirD2-dCas9 fusion; test: as above; conditions: label: 3' biotin
[10] = molecular target: T4, Cas9-VirD2 fusion (wild-type SpCas9 to …); test: as above; conditions: tags: SpCas9-VirD2 fusion, expressed in E. coli BL21(DE3); label: 3' biotin

Row | Binder | binding result [1] | binding result (dCas9-VirD2 fusion [2]) | binding result (VirD2-dCas9 fusion [3]) | binding result [4] | binding result [5] | binding result [6] | binding result [7] | binding result (dCas9-VirD2 fusion [8]) | binding result (VirD2-dCas9 fusion [9]) | binding result [10]
1 | B1 | binds | binds | binds | binds | no binding |  |  |  |  | 
2 | GTTTACCCGCCAATATATCCTGTCATTTTTTTTTT (ssDNA) [virD2 reporter-B-L] |  |  |  |  |  | no binding | binds | binds | binds | binds
